Data reported in the supplement of paper PMC10065799, “High-throughput profiling of sequence recognition by tyrosine kinases and SH2 domains using bacterial peptide display” (eLife, 2023).

Assays:
Fes = Fes (UniProt P07332); assay: phosphorylation enrichment, bacterial display (enrichment ratio); higher = better substrate or ligand; peptides without Tyr show the background
c-Abl (mouse) = assay: as above
Jak2 = Jak2 (UniProt O60674); assay: as above
Fer (mouse) = assay: as above
MERTK = MERTK (UniProt Q12866); assay: as above
Fyn = Fyn (UniProt P06241); assay: as above
FGFR1 = FGFR1 (UniProt P11362); assay: as above
AncSZ = assay: as above
c-Src = assay: as above
FGFR3 = FGFR3 (UniProt P22607); assay: as above
EPHB2 = EPHB2 (UniProt P29323); assay: as above
Hck = Hck (UniProt P08631); assay: as above
EPHB1 = EPHB1 (UniProt P54762); assay: as above
SHP2-C SH2 = assay: SH2 binding enrichment of the phosphorylated peptide, bacterial display (enrichment ratio); higher = better substrate or ligand; peptides without Tyr show the background
c-Src SH2 = assay: as above
Grb2 SH2 = Grb2 SH2 (UniProt P62993); assay: as above
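Throughout, for SH2 binding enrichment of the phosphorylated peptide, bacterial display: peptide library displayed on the E. coli surface as eCPX fusions, selected cells deep-sequenced, score is each peptide's frequency after selection divided by its frequency in the input.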
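Throughout, for phosphorylation enrichment, bacterial display: 11-residue human phosphosite peptides and single-mutation variants displayed on the E. coli surface, counted by deep sequencing, each peptide's frequency after selection divided by its frequency in the unselected input library; frequency after pTyr selection over input frequency; kinase dosed for 20-30% of maximal phosphorylation in three min.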

FGFR3, sequence (P22607 whole entry, looked up): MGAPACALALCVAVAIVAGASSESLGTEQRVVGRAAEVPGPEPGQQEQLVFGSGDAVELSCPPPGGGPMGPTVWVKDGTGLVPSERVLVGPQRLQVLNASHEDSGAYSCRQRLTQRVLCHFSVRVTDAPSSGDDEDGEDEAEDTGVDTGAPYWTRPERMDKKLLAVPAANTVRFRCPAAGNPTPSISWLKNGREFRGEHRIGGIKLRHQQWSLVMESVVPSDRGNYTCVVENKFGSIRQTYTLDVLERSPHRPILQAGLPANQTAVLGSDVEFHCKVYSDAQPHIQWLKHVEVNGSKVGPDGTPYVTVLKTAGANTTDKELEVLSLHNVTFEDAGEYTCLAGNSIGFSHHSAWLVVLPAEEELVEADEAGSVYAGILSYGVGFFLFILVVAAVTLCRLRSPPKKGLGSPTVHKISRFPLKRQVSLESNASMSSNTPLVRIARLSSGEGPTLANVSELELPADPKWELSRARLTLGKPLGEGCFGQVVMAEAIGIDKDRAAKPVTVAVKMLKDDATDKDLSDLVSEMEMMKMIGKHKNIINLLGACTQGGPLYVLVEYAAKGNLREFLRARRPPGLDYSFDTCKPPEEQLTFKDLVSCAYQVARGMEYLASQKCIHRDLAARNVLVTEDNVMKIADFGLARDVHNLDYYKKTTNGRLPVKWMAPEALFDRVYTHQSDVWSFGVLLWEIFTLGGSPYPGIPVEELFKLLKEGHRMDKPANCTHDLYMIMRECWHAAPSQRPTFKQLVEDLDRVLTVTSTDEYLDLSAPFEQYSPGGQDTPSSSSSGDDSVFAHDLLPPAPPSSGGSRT
EPHB2, sequence (P29323 whole entry, looked up): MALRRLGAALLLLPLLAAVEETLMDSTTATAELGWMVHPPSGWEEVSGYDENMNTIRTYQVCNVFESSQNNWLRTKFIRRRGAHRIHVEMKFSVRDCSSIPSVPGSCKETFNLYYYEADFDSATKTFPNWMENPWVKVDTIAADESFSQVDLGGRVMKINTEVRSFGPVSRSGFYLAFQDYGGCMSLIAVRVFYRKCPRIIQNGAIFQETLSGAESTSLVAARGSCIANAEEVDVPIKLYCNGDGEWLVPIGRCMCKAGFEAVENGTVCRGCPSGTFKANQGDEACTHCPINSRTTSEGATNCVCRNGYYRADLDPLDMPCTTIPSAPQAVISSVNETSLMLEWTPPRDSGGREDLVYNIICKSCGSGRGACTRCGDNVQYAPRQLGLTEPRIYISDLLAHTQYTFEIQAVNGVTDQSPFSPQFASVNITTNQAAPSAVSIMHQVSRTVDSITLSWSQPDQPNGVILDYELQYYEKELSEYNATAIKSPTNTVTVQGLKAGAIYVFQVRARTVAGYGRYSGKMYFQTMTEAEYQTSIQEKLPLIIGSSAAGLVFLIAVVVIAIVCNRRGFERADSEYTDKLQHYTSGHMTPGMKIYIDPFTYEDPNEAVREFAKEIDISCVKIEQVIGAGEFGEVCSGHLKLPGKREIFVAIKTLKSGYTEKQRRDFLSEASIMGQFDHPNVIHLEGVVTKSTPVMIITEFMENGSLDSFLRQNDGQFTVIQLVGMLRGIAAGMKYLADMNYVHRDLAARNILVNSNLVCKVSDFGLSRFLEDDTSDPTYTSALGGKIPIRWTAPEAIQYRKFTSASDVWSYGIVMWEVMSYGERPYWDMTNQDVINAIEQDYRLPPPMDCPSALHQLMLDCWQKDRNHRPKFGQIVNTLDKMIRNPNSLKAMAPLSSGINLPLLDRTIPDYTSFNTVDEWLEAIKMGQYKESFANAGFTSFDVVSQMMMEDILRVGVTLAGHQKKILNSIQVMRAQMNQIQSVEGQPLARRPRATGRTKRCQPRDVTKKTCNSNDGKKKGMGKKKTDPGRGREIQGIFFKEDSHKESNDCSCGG
FGFR1, sequence (P11362 whole entry, looked up): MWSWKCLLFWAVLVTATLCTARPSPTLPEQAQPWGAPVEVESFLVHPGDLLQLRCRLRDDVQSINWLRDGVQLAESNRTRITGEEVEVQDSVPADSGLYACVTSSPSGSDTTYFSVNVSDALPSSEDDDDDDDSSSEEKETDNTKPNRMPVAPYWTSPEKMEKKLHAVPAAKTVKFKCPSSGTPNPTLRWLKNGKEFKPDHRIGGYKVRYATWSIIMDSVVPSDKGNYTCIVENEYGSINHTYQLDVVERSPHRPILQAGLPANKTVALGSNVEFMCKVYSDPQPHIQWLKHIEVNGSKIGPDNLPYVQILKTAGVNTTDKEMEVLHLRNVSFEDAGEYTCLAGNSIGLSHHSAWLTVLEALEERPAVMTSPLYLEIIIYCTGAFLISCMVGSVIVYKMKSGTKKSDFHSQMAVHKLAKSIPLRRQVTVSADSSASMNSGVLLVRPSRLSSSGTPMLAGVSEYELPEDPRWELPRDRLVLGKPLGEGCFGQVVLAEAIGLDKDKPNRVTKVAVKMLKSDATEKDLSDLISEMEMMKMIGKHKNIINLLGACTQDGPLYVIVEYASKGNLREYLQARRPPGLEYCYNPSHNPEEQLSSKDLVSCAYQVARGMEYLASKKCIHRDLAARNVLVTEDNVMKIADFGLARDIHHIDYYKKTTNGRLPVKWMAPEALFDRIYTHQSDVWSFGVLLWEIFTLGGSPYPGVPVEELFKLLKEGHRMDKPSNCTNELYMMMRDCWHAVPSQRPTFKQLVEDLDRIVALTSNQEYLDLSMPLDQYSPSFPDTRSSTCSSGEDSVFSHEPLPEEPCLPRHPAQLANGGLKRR
EPHB1, sequence (P54762 whole entry, looked up): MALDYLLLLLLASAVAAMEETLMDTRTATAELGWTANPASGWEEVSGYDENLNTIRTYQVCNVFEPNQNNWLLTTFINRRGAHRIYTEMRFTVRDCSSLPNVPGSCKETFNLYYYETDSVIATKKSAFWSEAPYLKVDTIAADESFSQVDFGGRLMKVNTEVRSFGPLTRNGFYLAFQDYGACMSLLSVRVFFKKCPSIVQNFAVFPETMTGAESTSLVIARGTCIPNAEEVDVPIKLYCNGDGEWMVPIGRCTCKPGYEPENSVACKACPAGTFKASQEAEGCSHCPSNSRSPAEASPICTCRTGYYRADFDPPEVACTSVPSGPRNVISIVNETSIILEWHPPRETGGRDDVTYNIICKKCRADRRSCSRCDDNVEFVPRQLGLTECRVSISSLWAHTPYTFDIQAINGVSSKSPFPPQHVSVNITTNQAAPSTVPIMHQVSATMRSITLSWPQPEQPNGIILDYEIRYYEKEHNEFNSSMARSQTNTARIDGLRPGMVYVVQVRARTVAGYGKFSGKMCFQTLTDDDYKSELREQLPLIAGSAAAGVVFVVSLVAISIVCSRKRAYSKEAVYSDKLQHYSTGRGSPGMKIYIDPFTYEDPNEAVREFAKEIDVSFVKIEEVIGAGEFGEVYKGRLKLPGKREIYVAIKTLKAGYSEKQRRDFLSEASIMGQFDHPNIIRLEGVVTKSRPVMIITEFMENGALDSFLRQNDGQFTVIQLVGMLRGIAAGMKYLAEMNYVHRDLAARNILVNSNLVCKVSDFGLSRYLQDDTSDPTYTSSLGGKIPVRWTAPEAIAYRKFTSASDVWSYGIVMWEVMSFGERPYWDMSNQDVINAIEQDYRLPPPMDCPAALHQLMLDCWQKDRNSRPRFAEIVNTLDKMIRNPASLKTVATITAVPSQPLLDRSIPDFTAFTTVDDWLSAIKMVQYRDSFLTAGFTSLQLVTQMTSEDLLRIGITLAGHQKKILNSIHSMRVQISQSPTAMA
Jak2, sequence (O60674 whole entry, looked up): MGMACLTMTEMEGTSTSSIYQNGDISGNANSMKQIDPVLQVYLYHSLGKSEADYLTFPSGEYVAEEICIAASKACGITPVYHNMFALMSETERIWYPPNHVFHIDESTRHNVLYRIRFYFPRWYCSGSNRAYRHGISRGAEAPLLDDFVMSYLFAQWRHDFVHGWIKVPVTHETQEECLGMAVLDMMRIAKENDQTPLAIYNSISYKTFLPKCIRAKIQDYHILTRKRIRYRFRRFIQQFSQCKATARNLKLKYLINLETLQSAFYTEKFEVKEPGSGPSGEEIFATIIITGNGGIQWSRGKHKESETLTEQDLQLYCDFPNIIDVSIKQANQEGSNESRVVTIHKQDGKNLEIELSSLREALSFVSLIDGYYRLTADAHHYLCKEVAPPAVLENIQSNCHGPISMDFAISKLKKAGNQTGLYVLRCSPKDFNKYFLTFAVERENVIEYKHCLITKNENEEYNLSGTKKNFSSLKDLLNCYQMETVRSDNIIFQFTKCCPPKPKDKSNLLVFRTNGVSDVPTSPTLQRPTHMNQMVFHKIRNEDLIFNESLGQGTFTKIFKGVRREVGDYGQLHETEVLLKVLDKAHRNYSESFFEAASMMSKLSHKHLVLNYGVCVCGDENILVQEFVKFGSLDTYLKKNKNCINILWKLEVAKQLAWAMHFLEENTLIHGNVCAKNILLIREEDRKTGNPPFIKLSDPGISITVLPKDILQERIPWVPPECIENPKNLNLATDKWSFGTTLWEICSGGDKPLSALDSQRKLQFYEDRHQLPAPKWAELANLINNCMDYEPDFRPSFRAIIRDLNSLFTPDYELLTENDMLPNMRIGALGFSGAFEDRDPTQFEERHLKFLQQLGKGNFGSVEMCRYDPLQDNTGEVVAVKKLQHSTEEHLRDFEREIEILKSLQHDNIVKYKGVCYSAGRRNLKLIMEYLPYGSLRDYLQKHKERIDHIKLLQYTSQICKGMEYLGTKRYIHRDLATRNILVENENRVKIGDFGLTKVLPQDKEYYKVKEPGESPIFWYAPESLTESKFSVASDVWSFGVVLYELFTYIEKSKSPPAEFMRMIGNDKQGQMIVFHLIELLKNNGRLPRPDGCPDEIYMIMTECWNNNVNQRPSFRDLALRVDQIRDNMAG

Row | SH2 binding enrichment (SHP2-C SH2) | SH2 binding enrichment (c-Src SH2) | SH2 binding enrichment (Grb2 SH2) | Sequence | phosphorylation enrichment (Fes) | phosphorylation enrichment (c-Abl (mouse)) | phosphorylation enrichment (Jak2) | phosphorylation enrichment (Fer (mouse)) | phosphorylation enrichment (MERTK) | phosphorylation enrichment (Fyn) | phosphorylation enrichment (FGFR1) | phosphorylation enrichment (AncSZ) | phosphorylation enrichment (c-Src) | phosphorylation enrichment (FGFR3) | phosphorylation enrichment (EPHB2) | phosphorylation enrichment (Hck) | phosphorylation enrichment (EPHB1)
1 | 0.949 | 1.1 | 1.11 | NPEACYQRLKK [TK2_Y190_T188A] | 0.597 | 0.558 | 0.892 | 0.419 | 0.484 | 0.474 | 0.381 | 0.63 | 0.685 | 0.471 | 0.507 | 0.802 | 0.417
2 | 0.401 | 0.503 | 0.631 | AHLLQYNHQVK [LGALS3_Y221_R224Q] | 0.9 | 0.474 | 0.517 | 0.583 | 0.521 | 0.706 | 0.579 | 0.706 | 0.459 | 0.545 | 0.505 | 0.508 | 0.503
3 | 0.516 | 0.353 | 0.713 | VVSLFYGTALF [OR10C1_Y251_M246V] | 1.43 | 1.21 | 1.61 | 1.1 | 0.7 | 1.94 | 0.566 | 1.25 | 1.97 | 0.804 | 0.812 | 1.42 | 0.698
4 | 0.516 | 0.446 | 1.18 | LEGAKYVSHGA [ASS1_Y113_R108L] | 1.14 | 0.852 | 0.696 | 0.928 | 0.551 | 0.973 | 1 | 0.835 | 0.605 | 1.17 | 1.03 | 0.606 | 0.682
5 | 1.39 | 1.18 | 1.14 | HMRLRYLAAEE [CEP120_Y884_Q879H] | 1.89 | 1.3 | 1.03 | 0.75 | 0.452 | 0.722 | 0.412 | 1.22 | 0.659 | 0.939 | 0.552 | 0.53 | 0.587
6 | 1.31 | 0.735 | 1.11 | GIVTGYLVLKE [DNMT3B_Y588_A585V] | 1.4 | 0.833 | 1.31 | 0.647 | 0.524 | 0.492 | 0.553 | 1.07 | 0.448 | 0.895 | 0.494 | 0.505 | 0.684
7 | 0.749 | 0.721 | 1.15 | MTYMFYRENLR [NLRP14_Y443_V441M] | 1.19 | 0.751 | 1.1 | 0.456 | 0.608 | 1.48 | 0.628 | 1.33 | 2.72 | 0.753 | 1 | 1.97 | 0.948
8 | 0.913 | 0.674 | 0.732 | FGGLRYGFGVL [KRTAP20-2_Y13_YF] | 0.876 | 0.608 | 0.753 | 0.351 | 0.42 | 0.348 | 0.733 | 0.786 | 0.35 | 0.56 | 0.379 | 0.399 | 0.443
9 | 1.79 | 0.674 | 0.894 | KDFTKYVAFIE [KDM4B_Y31_N29T_YF] | 1.06 | 0.614 | 0.879 | 0.422 | 0.481 | 0.521 | 0.442 | 0.849 | 0.457 | 0.623 | 0.626 | 0.462 | 0.55
10 | 0.872 | 0.393 | 0.769 | GVRLYYRVRES [RB1_Y454_M457R] | 1.08 | 0.39 | 0.964 | 0.483 | 0.403 | 0.435 | 0.662 | 1.54 | 0.285 | 0.781 | 0.447 | 0.408 | 0.435
11 | 0.661 | 0.502 | 0.806 | FSGDCYRIQGR [DDR2_Y741_Y740C_YF] | 1.05 | 0.636 | 0.764 | 0.493 | 0.35 | 0.446 | 0.431 | 0.989 | 0.45 | 0.666 | 0.659 | 0.472 | 0.593
12 | 0.55 | 0.534 | 0.668 | VPLATYMRIYK [RPL21_Y30] | 0.958 | 0.591 | 1.01 | 0.517 | 0.412 | 0.454 | 0.526 | 0.887 | 0.429 | 0.687 | 0.492 | 0.477 | 0.511
13 | 0.504 | 0.404 | 0.754 | NELTFYCFKKD [CD59_Y87_C89Y_YF] | 1.22 | 0.758 | 1.12 | 0.591 | 0.381 | 0.412 | 0.456 | 0.96 | 0.35 | 0.614 | 0.492 | 0.448 | 0.541
14 | 0.715 | 0.502 | 0.655 | GYCSWYRGWAP [TIMP3_Y195] | 1.53 | 1.04 | 1.32 | 0.691 | 0.975 | 0.671 | 0.807 | 1.38 | 1.33 | 1 | 0.712 | 1.25 | 0.8
15 | 2.19 | 3.84 | 14.2 | SLAARYYNWVS [FLT4_Y1230] | 1.15 | 0.933 | 1.48 | 0.817 | 5.97 | 0.512 | 5.38 | 1.06 | 0.746 | 3.55 | 0.83 | 0.569 | 0.756
16 | 0.872 | 0.815 | 1.09 | TRSYKCLLLSM [NF1_Y491_Y491C] | 0.94 | 0.637 | 0.784 | 0.402 | 0.434 | 0.425 | 0.375 | 0.979 | 0.401 | 0.619 | 0.487 | 0.441 | 0.486
17 | 1.55 | 2.33 | 0.887 | VPHECYAKVFD [ALB_Y394_D389V] | 1.22 | 0.945 | 0.928 | 0.542 | 0.497 | 0.564 | 0.619 | 1.07 | 0.561 | 0.727 | 0.716 | 0.572 | 0.647

Row | SH2 binding enrichment (SHP2-C SH2) | SH2 binding enrichment (c-Src SH2) | SH2 binding enrichment (Grb2 SH2) | Sequence | phosphorylation enrichment (Fes) | phosphorylation enrichment (c-Abl (mouse)) | phosphorylation enrichment (Jak2) | phosphorylation enrichment (Fer (mouse)) | phosphorylation enrichment (MERTK) | phosphorylation enrichment (Fyn) | phosphorylation enrichment (FGFR1) | phosphorylation enrichment (AncSZ) | phosphorylation enrichment (c-Src) | phosphorylation enrichment (FGFR3) | phosphorylation enrichment (EPHB2) | phosphorylation enrichment (Hck) | phosphorylation enrichment (EPHB1)
18 | 0.734 | 0.401 | 0.737 | QEMMEYRRQIQ [DES_Y324_H326R] | 0.92 | 0.428 | 1.18 | 0.644 | 0.455 | 0.491 | 0.424 | 0.878 | 0.563 | 0.607 | 0.601 | 0.355 | 0.523
19 | 1.66 | 0.98 | 1.51 | NTGFFYDLFGG [PTPN11_Y63_D61Y_YF] | 1.31 | 0.869 | 1.19 | 0.77 | 3.4 | 2.42 | 0.509 | 1.24 | 2.85 | 0.786 | 0.659 | 1.52 | 0.693
20 | 0.661 | 0.593 | 0.724 | DSASAYADEVK [ETNPPL_Y189] | 1.04 | 0.685 | 1.15 | 0.53 | 0.601 | 0.549 | 0.655 | 1.28 | 0.638 | 0.685 | 0.544 | 0.653 | 0.536
21 | 0.74 | 0.519 | 0.876 | PSGPTYRGAVP [ASAH1_Y43] | 0.698 | 0.489 | 0.611 | 0.417 | 0.58 | 0.602 | 0.58 | 0.772 | 0.878 | 0.503 | 0.509 | 0.583 | 0.757
22 | 0.573 | 0.443 | 0.605 | ETPSEYLEIVR [TMEM130_Y412] | 1.01 | 0.652 | 1.01 | 0.493 | 0.452 | 0.555 | 0.645 | 1.17 | 0.49 | 0.77 | 0.608 | 0.652 | 0.848
23 | 0.438 | 0.492 | 0.948 | IFETDYFQKGG [INSR_Y1189_R1191Q_YF] | 1.01 | 0.662 | 0.981 | 0.358 | 0.386 | 0.502 | 0.468 | 1.24 | 0.492 | 0.876 | 0.401 | 0.473 | 0.421
24 | 0.959 | 0.704 | 0.91 | FIAVGYVDDSQ [HLA-A_Y51_T55S] | 1.08 | 0.617 | 0.839 | 0.444 | 0.3 | 0.333 | 0.391 | 0.783 | 0.394 | 0.629 | 0.491 | 0.445 | 0.469
25 | 0.549 | 0.513 | 0.782 | AGARMYGVLPW [PLP1_Y207_D203G] | 0.75 | 0.667 | 0.55 | 0.447 | 0.842 | 4.8 | 0.489 | 0.67 | 3.6 | 0.495 | 0.724 | 5.5 | 0.542
26 | 0.54 | 0.606 | 0.98 | YSNKLHYQLEQ [PDPR_Y109_Y109H] | 0.782 | 0.495 | 0.757 | 0.461 | 0.484 | 0.568 | 0.435 | 1.12 | 0.553 | 0.592 | 0.439 | 0.535 | 0.498
27 | 0.43 | 0.545 | 0.76 | RRNSPYSQTMK [TET2_Y819] | 1.14 | 1.81 | 1.84 | 0.63 | 0.813 | 0.731 | 2.12 | 1.02 | 1.02 | 0.953 | 0.853 | 0.913 | 1.07
28 | 0.7 | 1.51 | 1.43 | LFLALYTGLVH [PIGB_Y402] | 2.02 | 1.38 | 1.53 | 1.46 | 1.2 | 1.42 | 0.775 | 2.04 | 2.11 | 1.39 | 1.4 | 2.29 | 1.26
29 | 0.702 | 0.689 | 0.761 | MDDDQYALLTA [EFCAB6_Y675_T680A] | 1.35 | 0.871 | 1.15 | 0.665 | 0.592 | 0.647 | 1.21 | 1.35 | 0.608 | 1.2 | 0.722 | 0.77 | 0.547
30 | 0.655 | 0.517 | 0.887 | FVTCTYSPALN [TP53_Y126_S121F] | 1.32 | 0.828 | 1.07 | 0.557 | 0.346 | 0.449 | 0.464 | 1.29 | 0.535 | 0.71 | 0.501 | 0.516 | 0.603
31 | 0.645 | 0.452 | 0.84 | VLTSTYRGGGG [HBA1_Y141_K140T] | 0.628 | 0.425 | 0.509 | 0.385 | 0.367 | 0.38 | 0.361 | 0.575 | 0.394 | 0.483 | 0.376 | 0.377 | 0.315
32 | 0.807 | 0.794 | 0.819 | VKANTYEKFWL [GATM_Y100_P105L_YF] | 1.07 | 0.672 | 0.821 | 2.9 | 1.19 | 0.803 | 0.382 | 0.887 | 1.11 | 0.722 | 0.545 | 0.684 | 0.562
33 | 0.494 | 0.481 | 0.699 | HSFNSYTFPRL [PAK5_Y316_YF] | 1.74 | 0.849 | 1.31 | 0.489 | 0.55 | 0.407 | 0.59 | 1.78 | 0.374 | 0.958 | 0.629 | 0.525 | 0.802
